Test results reported in patent US20070134724.

Test system: tau

Gleevec-resistant abl1 (T3611 form) was tested, and the “tyrosine phosphorylation of tau in the presence of Gleevec (western blot, ELISA)” value was “In the presence of Gleevec, both forms could phosphorylate tau”.
